Results published in publication PMC5498027.

How the values were obtained:
[1] = target: taxol-stabilized microtubules polymerized from bovine brain tubulin (bovine) (UniProt Q6B856)
[2] = target: taxol-stabilized microtubules polymerized from bovine brain tubulin (bovine) (UniProt Q6B856); assay: co-sedimentation; microtubule pelleting assay as with ATP but with 5 mM AMPPNP: 1 uM Kif5A, tubulin 0-8 uM (WT) or 0-20 uM (mutants), 20 uM taxol, room temperature 15 min; fraction Kif5A bound by western blot densitometry

Sequence of human Kif5A, first 560 amino acids, wild type, fused to EGFP and a C-terminal 6xHIS tag (Q12840 1-560): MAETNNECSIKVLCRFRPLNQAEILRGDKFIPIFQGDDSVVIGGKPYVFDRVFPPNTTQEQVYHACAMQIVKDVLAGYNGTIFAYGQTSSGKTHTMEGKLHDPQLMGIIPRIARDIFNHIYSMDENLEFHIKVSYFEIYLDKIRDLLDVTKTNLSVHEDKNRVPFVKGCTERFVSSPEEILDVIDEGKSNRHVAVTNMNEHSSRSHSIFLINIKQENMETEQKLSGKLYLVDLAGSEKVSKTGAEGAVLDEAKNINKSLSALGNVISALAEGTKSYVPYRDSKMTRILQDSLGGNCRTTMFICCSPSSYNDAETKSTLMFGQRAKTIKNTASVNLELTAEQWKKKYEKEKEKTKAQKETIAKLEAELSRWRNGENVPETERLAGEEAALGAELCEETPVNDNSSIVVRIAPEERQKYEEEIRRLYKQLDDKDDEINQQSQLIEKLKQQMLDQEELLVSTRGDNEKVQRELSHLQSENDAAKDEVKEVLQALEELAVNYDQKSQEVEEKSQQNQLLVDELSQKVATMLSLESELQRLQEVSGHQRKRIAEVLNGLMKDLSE

Substance | -fold increase of the ATPase rate by MTs (MT-stimulated over basal; malachite green phosphate assay, microtubules from 2 uM tubulin) [1] [fold] | percent bound at saturation [2] [%]
human Kif5A, first 560 amino acids, E251K, fused to EGFP and a C-terminal 6xHIS tag (from UniProt Q12840 1-560) (domain or fragment) | 6.2 | 
human Kif5A, first 560 amino acids, R204Q, fused to EGFP and a C-terminal 6xHIS tag (from UniProt Q12840 1-560) (domain or fragment) | 10.6 | 
human Kif5A, first 560 amino acids, S202N, fused to EGFP and a C-terminal 6xHIS tag (from UniProt Q12840 1-560) (domain or fragment) | 5.4 | 

Results, then the substance that gave them:

-fold increase of the ATPase rate by MTs (MT-stimulated over basal; malachite green phosphate assay, microtubules from 2 uM tubulin) [1] [fold] | percent bound at saturation [2] [%] | Substance
42.6 |  | human Kif5A, first 560 amino acids, M198T, fused to EGFP and a C-terminal 6xHIS tag (from UniProt Q12840 1-560) (domain or fragment)
23.5 |  | human Kif5A, first 560 amino acids, S203C, fused to EGFP and a C-terminal 6xHIS tag (from UniProt Q12840 1-560) (domain or fragment)
33.2 | 100 | human Kif5A, first 560 amino acids, wild type, fused to EGFP and a C-terminal 6xHIS tag (from UniProt Q12840 1-560) (domain or fragment)
